Assays:
[1] = target: T1, vesicle docking protein (rat); assay: IP of RBL-2H3 lysate on nickel beads, MS/MS ProtScore; 2nd value
T1 construct: Endogenous protein from RBL-2H3 (rat) lysate; a separate GenBank entry from gi 9507177
Experimental: (§1) They were used to immunoprecipitate protein lysates from RBL-2H3 cells stimulated or not beforehand via the FcεRI. After the immunoprecipitations, the beads were washed in low stringency conditions in order to preserve low affinity bindings.
(§2) After digestion with trypsin, the bands were analysed by mass spectrometry MS/MS using the MALDI-TOF (matrix-assisted laser desorption/ionization time of flight) technique.
(§3) The Mass spectrometer which was used is composed of a laser which ionises previously digested peptides; an analyser which measures the mass/charge (m/z) ratios of the ionised peptides as a function of their flight time; and a detector which records the number of ions for each given m/z ratio. The obtained spectra of m/z ratios allow the identification of peptides and thus proteins present in the samples, by interrogating the Genebank rat database, as well as the mouse database for comparison (the mice Genebank data being more complete). A confidence index or ProtScore is attributed for each protein as a function of the number of identified peptides which are part of its sequence and of the nature of these peptides (composition, size). A ProtScore higher than 3 corresponds to 0.1% probability of identifying a false positive, in other words the probability that this protein is present is 99.9%.

[2] = target: T2, kinesin family member 20A (rat); assay: as above
T2 construct: Endogenous protein from RBL-2H3 (rat) lysate
Experimental: as §1, §2, §3

[3] = target: T3, adaptor-related protein complex 2, alpha 1 subunit (rat); assay: as above
T3 construct: Endogenous protein from RBL-2H3 (rat) lysate
Experimental: as §1, §2, §3

[4] = target: T4, PREDICTED: similar to myosin IG (rat); assay: as above
T4 construct: Endogenous protein from RBL-2H3 (rat) lysate
Experimental: as §1, §2, §3

[5] = target: T1, vesicle docking protein; assay: IP of RBL-2H3 lysate on nickel beads, MS/MS ProtScore; 1st value
Experimental: as §1, §2, §3

[6] = target: T2, kinesin family member 20A; assay: as above
Experimental: as §1, §2, §3

[7] = target: T3, adaptor-related protein complex 2, …; assay: as above
Experimental: as §1, §2, §3

[8] = target: T4, PREDICTED: similar to myosin IG; assay: as above
Experimental: as §1, §2, §3

[9] = target: T5, CTP synthase (rat); assay: IP of RBL-2H3 lysate on nickel beads, MS/MS ProtScore
T5 construct: Endogenous protein from RBL-2H3 (rat) lysate
Experimental: as §1, §2, §3

[10] = target: T6, rCG30986, isoform CRA_a (rat); assay: as above
T6 construct: Endogenous protein from RBL-2H3 (rat) lysate
Experimental: as §1, §2, §3

[11] = target: T7, lysine (K)-specific demethylase 1 (rat); assay: as above
T7 construct: Endogenous protein from RBL-2H3 (rat) lysate
Experimental: as §1, §2, §3

[12] = target: T8, fragile X mental retardation 1 (rat); assay: as above
T8 construct: Endogenous protein from RBL-2H3 (rat) lysate
Experimental: as §1, §2, §3

[13] = target: T9, ATP-binding cassette sub-family F member 1 (rat, UniProt Q6MG08 1-839); assay: as above
T9 construct: Endogenous protein from lysates of the rat mast cell line RBL-2H3; also called ABCF1; ABCF1 protein
Experimental: as §1, §2, §3

[14] = target: T10, guanine nucleotide binding protein-like 2 (rat); assay: as above
T10 construct: Endogenous protein from RBL-2H3 (rat) lysate
Experimental: as §1, §2, §3

[15] = target: T11, metastasis associated 1 family, member 2 (rat); assay: as above
T11 construct: Endogenous protein from RBL-2H3 (rat) lysate
Experimental: as §1, §2, §3

[16] = target: T12, CCCH-type zinc finger antiviral protein (rat); assay: as above
T12 sequence (Q8K3Y6 2-776, looked up): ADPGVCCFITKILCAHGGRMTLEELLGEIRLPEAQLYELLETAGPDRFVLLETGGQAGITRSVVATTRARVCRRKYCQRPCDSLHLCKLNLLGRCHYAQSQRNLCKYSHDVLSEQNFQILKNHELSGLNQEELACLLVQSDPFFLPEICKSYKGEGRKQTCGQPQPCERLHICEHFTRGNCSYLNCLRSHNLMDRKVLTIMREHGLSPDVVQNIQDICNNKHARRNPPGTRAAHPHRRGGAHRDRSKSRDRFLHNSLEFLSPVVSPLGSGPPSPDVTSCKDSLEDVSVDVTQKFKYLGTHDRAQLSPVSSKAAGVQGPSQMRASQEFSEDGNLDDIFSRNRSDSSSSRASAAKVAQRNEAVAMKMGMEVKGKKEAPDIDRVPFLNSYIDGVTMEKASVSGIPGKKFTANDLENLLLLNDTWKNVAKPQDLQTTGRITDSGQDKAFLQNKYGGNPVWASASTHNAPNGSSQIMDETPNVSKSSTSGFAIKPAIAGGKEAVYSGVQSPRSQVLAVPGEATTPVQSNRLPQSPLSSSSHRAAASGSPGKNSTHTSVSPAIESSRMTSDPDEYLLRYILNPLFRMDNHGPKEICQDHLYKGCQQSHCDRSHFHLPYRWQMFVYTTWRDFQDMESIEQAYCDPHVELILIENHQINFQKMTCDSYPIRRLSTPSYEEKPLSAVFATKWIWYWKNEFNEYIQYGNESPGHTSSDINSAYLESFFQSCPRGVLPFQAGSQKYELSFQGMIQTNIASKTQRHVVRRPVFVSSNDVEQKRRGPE
Experimental: as §1, §2, §3

T1 sequence (P41542 whole entry): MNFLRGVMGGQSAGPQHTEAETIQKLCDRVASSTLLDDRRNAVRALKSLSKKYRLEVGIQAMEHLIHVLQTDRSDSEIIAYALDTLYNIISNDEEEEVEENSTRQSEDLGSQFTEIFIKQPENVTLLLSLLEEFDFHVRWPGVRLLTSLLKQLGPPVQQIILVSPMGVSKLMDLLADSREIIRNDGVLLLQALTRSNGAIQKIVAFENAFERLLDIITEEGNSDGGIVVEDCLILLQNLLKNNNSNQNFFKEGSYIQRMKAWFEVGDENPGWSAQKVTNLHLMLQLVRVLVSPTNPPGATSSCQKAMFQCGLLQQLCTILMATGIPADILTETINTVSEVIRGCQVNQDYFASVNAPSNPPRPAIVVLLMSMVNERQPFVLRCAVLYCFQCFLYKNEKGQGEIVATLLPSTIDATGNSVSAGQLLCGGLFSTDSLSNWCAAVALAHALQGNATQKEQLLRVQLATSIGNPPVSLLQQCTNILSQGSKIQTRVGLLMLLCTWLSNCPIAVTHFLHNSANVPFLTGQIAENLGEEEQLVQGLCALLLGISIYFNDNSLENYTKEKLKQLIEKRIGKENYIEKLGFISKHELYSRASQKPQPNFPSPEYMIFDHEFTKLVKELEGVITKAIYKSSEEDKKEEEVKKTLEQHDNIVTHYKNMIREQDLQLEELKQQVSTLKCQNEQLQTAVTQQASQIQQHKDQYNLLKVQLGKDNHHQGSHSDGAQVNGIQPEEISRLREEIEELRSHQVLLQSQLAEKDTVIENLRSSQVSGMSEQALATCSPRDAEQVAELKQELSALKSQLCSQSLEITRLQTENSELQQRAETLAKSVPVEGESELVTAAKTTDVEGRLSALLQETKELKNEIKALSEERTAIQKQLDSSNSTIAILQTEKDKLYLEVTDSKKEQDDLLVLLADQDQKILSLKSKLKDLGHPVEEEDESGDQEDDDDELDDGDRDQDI
T9 sequence (Q6MG08 whole entry): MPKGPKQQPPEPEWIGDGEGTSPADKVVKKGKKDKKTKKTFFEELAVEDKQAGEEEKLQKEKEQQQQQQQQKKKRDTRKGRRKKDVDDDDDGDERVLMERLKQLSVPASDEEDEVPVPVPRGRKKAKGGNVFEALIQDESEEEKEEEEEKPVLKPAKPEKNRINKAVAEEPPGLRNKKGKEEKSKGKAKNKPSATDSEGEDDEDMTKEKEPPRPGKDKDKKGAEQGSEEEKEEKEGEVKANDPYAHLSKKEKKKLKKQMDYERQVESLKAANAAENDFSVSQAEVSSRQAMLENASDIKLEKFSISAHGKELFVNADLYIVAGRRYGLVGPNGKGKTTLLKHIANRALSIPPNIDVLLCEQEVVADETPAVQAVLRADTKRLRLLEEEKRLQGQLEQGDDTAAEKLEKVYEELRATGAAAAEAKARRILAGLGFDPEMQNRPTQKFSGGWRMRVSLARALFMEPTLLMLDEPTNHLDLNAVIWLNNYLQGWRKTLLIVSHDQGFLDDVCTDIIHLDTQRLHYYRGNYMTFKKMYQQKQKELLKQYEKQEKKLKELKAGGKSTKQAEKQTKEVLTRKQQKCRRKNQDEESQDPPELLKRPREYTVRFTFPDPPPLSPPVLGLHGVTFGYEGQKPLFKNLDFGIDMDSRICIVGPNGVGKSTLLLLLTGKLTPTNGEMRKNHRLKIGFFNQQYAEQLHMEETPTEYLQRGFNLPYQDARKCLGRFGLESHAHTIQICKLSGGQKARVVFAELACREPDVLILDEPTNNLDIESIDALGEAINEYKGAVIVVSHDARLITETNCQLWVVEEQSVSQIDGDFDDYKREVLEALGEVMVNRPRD

B1: 5H4-VH (other)
VH: MAEVQLVESGGSLVKPGGSLRLSCAASGFTFSNYSMNWVRQAPGKGLEWISSISGSSRYIYYADFVKGRFTISRDNATNSLYLQMNSLRAEDTAVYYCVRDGGLREGFDCWGRGTLVTVSSAAAEQKLISEEDLNGAA
notes: Single human-derived VH domain (truncated scFv, VH only) on the 13R4 framework; produced in E. coli, immobilised on nickel beads; also called 5H4-VH fragment; intracellular antibody 5H4-VH; not shown: C-terminal Myc tag and 6xHis tag from vector pET23NN
Protscore IP [1]: 5
Protscore IP [2]: 10
Protscore IP [3]: 6
Protscore IP [4]: 20
Protscore IP [5]: 8
Protscore IP [6]: 8
Protscore IP [7]: 15
Protscore IP [8]: 8

B2: scFv 3H2-1 (scFv)
scFv: MAEVQLVESGGSLVKPGGSLRLSCAASGFTFSNYSMNWVRQAPGKGLEWISSISGSSRYIYYADFVKGRFTISRDNATNSLYLQMNSLRAEDTAVYYCVRPIAVSDYWGRGTLVTVSSGGGGSGGGGSGGGGSQSVLTQPASVSGSPGQSITISCAGTSSDVGGYNYVSWYQQHPGKAPKLMIYEDSKRPSGVSNRFSGSKSGNTASLTISGLQAEDEADYYCQTYDGSRAVFGGGTKLAVLGAAAEQKLISEEDLNGAA
notes: also called intracellular antibody 3H2-1; intrabody 3H2-1; not shown: C-terminal Myc tag and 6xHis tag from vector pET23NN
Protscore IP [9]: 7
Protscore IP [10]: 10
Protscore IP [11]: 10
Protscore IP [12]: 4
Protscore IP [13]: 51
Protscore IP [14]: 10
Protscore IP [15]: 4
Protscore IP [16]: 4

From patent US20150346192A1 (Sanofi, published 2015)
